Key:
McjB = biological target: T1, McjB (UniProt Q9X2V8)
T1 sequence: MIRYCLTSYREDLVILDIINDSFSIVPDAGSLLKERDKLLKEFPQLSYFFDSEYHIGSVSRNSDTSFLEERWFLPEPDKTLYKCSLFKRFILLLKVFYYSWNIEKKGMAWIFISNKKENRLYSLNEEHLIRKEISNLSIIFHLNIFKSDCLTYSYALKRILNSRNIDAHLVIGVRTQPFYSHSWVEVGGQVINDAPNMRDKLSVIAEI

McjB M108T = McjB M108T (UniProt Q9X2V8)
McjC K337E = McjC K337E (UniProt Q9X2V9)
McjC S440Y = McjC S440Y (UniProt Q9X2V9)
McjC = biological target: T2, McjC (UniProt Q9X2V9)
T2 sequence: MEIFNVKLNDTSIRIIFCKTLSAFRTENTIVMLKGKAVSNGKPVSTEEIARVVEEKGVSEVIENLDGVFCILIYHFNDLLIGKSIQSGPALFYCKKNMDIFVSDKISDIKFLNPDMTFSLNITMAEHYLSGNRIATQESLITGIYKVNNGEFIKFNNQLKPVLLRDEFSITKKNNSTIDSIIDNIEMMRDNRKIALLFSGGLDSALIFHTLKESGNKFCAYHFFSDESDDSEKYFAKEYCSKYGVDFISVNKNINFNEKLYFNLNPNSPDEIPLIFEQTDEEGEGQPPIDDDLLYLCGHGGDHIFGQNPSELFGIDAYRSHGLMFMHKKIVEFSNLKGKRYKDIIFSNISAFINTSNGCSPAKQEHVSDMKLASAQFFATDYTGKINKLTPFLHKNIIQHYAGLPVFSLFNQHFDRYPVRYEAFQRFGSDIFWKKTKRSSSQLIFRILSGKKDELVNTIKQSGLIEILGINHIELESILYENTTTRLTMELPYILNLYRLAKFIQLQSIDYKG

McjA T-2M (peptide)
MccJ25 production yield relative to WT (HPLC peak area of E. coli culture extract) (McjB): 1%
MccJ25 production yield relative to WT (HPLC peak area of E. coli culture extract; synthetic rescue pair TM) (McjB M108T): 5.4%

Microcin J25 precursor peptide McjA
MccJ25 production yield relative to WT (HPLC peak area of E. coli culture extract) (McjC K337E): 8.1%
MccJ25 production yield relative to WT (HPLC peak area of E. coli culture extract) (McjC S440Y): 2.4%

Split McjB S80/81 (B1 1-80 and B2 81-208 as separate proteins) (from UniProt Q9X2V8 1-80; Q9X2V8 81-208) (complex)
MccJ25 production yield relative to WT (HPLC peak area of E. coli culture extract) (McjC): 41%

B1: McjB with a C-terminal MBP fusion (enzyme)
chain: MIRYCLTSYREDLVILDIINDSFSIVPDAGSLLKERDKLLKEFPQLSYFFDSEYHIGSVSRNSDTSFLEERWFLPEPDKTLYKCSLFKRFILLLKVFYYSWNIEKKGMAWIFISNKKENRLYSLNEEHLIRKEISNLSIIFHLNIFKSDCLTYSYALKRILNSRNIDAHLVIGVRTQPFYSHSWVEVGGQVINDAPNMRDKLSVIAEI
MccJ25 production yield relative to WT (HPLC peak area of E. coli culture extract; McjB-MBP in an otherwise native gene cluster) (McjC): 61%

B2: McjC with a C-terminal MBP fusion (enzyme)
chain: MEIFNVKLNDTSIRIIFCKTLSAFRTENTIVMLKGKAVSNGKPVSTEEIARVVEEKGVSEVIENLDGVFCILIYHFNDLLIGKSIQSGPALFYCKKNMDIFVSDKISDIKFLNPDMTFSLNITMAEHYLSGNRIATQESLITGIYKVNNGEFIKFNNQLKPVLLRDEFSITKKNNSTIDSIIDNIEMMRDNRKIALLFSGGLDSALIFHTLKESGNKFCAYHFFSDESDDSEKYFAKEYCSKYGVDFISVNKNINFNEKLYFNLNPNSPDEIPLIFEQTDEEGEGQPPIDDDLLYLCGHGGDHIFGQNPSELFGIDAYRSHGLMFMHKKIVEFSNLKGKRYKDIIFSNISAFINTSNGCSPAKQEHVSDMKLASAQFFATDYTGKINKLTPFLHKNIIQHYAGLPVFSLFNQHFDRYPVRYEAFQRFGSDIFWKKTKRSSSQLIFRILSGKKDELVNTIKQSGLIEILGINHIELESILYENTTTRLTMELPYILNLYRLAKFIQLQSIDYKG
MccJ25 production yield relative to WT (HPLC peak area of E. coli culture extract; McjC-MBP in an otherwise native gene cluster) (McjB): 86%

B3: McjB F67R (enzyme)
chain: MIRYCLTSYREDLVILDIINDSFSIVPDAGSLLKERDKLLKEFPQLSYFFDSEYHIGSVSRNSDTSRLEERWFLPEPDKTLYKCSLFKRFILLLKVFYYSWNIEKKGMAWIFISNKKENRLYSLNEEHLIRKEISNLSIIFHLNIFKSDCLTYSYALKRILNSRNIDAHLVIGVRTQPFYSHSWVEVGGQVINDAPNMRDKLSVIAEI
MccJ25 production yield relative to WT (HPLC peak area of E. coli culture extract) (McjC): 0.6%

B4: McjB circular permutant CP60/61 (enzyme)
chain: RNSDTSFLEERWFLPEPDKTLYKCSLFKRFILLLKVFYYSWNIEKKGMAWIFISNKKENRLYSLNEEHLIRKEISNLSIIFHLNIFKSDCLTYSYALKRILNSRNIDAHLVIGVRTQPFYSHSWVEVGGQVINDAPNMRDKLSVIAEIGGSSGGMIRYCLTSYREDLVILDIINDSFSIVPDAGSLLKERDKLLKEFPQLSYFFDSEYHIGSVS
MccJ25 production yield relative to WT (HPLC peak area of E. coli culture extract) (McjC): 0.4%

B5: McjB circular permutant CP80/81 (enzyme)
chain: LYKCSLFKRFILLLKVFYYSWNIEKKGMAWIFISNKKENRLYSLNEEHLIRKEISNLSIIFHLNIFKSDCLTYSYALKRILNSRNIDAHLVIGVRTQPFYSHSWVEVGGQVINDAPNMRDKLSVIAEIGGSSGGMIRYCLTSYREDLVILDIINDSFSIVPDAGSLLKERDKLLKEFPQLSYFFDSEYHIGSVSRNSDTSFLEERWFLPEPDKT
MccJ25 production yield relative to WT (HPLC peak area of E. coli culture extract) (McjC): 4.4%
